According to US20230406948A1 (APEXIGEN, published 2023):

Tests used:
[1] = target: T1, human CD40 on cells (native CD40 on Ramos cells, human B cells, human monocyte-derived dendritic cells); cell … (human, UniProt P25942 21-193); assay: FACS on live Ramos cells, goat anti-human IgG PE
T1 construct: Endogenous CD40 on human cells; also called native CD40 protein; CD40 positive cells
Description: In another experiment, the ability of the CD40 antibodies to bind to native CD40 protein was determined by FACS analysis with live Ramos cells. Ramos cells were harvested and blocked with 1.5 ml blocking buffer (0.1% BSA/PBS) for 30 minutes. Antibodies at various concentrations were added to cells and incubated for 1 hour. After washing, 50 ul Goat-anti-human IgG (H+L) PE antibody at 1:1000 dilution in blocking solution was added and incubated for 30 minutes. Cells were then washed with PBS and were re-suspended with […] and analyzed by FACS. The antibodies tested were the 19-21 rabbit anti-CD40 agonist antibody, SGN-40 developed by Seattle Genetics and CP870893 from Pfizer.

[2] = target: T1, human CD40 on cells (native CD40 on …); assay: cell-based or functional assay
[3] = target: T2, fusion protein of rabbit Fc and 4-1 BB (UniProt Q07011 24-186); assay: direct ELISA, 1 ug/ml rabbit Fc-4-1BB fusion coated, goat anti-human IgG-HRP
T2 construct: Neither the species nor the order of the parts is stated; not shown: rabbit Fc
T2 sequence (Q07011 24-186): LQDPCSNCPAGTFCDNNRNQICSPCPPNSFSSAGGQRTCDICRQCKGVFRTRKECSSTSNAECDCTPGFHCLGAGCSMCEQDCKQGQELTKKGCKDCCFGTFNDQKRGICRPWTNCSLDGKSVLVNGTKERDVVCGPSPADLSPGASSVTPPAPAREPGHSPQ
Description: (§1) Binding selectivity of APX005 was assessed by direct ELISA to a panel of TNFR family proteins. A total of 1 μg/ml of fusion protein of rabbit Fc and CD40, RANK, TweakR, OX40, DR5 and 4-1 BB were coated on ELISA plates. Bound APX005 was detected using goat anti-human HRP-conjugated IgG.

[4] = target: T3, fusion protein of rabbit Fc and TweakR (UniProt Q9NP84 28-80, limits assumed); assay: direct ELISA, 1 ug/ml rabbit Fc-TweakR fusion coated, goat anti-human IgG-HRP
T3 construct: Neither the species nor the order of the parts is stated; not shown: rabbit Fc
Description: as §1

[5] = target: T4, fusion protein of rabbit Fc and DR5 (UniProt O14763 56-182, limits assumed); assay: direct ELISA, 1 ug/ml rabbit Fc-DR5 fusion coated, goat anti-human IgG-HRP
T4 construct: Neither the species nor the order of the parts is stated; not shown: rabbit Fc
T4 sequence (O14763 56-182 limits assumed): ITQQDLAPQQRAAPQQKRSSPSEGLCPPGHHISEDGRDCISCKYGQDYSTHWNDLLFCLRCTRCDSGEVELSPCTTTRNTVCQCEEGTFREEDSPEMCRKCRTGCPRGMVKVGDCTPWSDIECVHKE
Description: as §1

mouse CD40 = target: T5, mouse CD40 (mouse, UniProt P27512 20-193, limits assumed); assay: direct ELISA according to paragraph 284 (1 ug/ml mouse CD40 coated, goat anti-human IgG-HRP); y axis of the sheet reads MFI
T5 construct: Coated on ELISA plates at 1 ug/ml
T5 sequence (P27512 20-193 limits assumed): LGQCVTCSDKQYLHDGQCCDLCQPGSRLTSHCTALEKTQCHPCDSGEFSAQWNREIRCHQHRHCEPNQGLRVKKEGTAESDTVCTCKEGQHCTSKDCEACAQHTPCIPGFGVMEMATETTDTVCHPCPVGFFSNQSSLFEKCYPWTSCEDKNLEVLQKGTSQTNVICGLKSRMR
Description: Cross-reactivity was assessed by direct ELISA. A total of 1 μg/ml of human CD40, monkey CD40 or mouse CD40 was coated on ELISA plates followed by incubation with 1 μg/ml of APX005 or control IgG1. Antibodies bound to CD40 were detected using goat anti-human IgG conjugated with HRP. APX005 clearly crossreacts with monkey CD40 but not mouse CD40. (FIG. 11A)

human CD40 = target: T6, human CD40 (human, UniProt P25942 21-193); assay: method not stated
T6 construct: also called immobilized human CD40
T6 sequence (P25942 21-193 limits assumed): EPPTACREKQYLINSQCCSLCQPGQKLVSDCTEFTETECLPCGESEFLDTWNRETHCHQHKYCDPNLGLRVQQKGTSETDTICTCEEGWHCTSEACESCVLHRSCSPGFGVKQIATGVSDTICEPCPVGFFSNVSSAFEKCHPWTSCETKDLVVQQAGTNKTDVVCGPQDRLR

[6] = target: T7, CD40 peptide, residues 125-144 of human CD40 (125PCPVGFFSNVSSAFEKCHPW144) (human); assay: PEPSCAN-based ELISA on solid-phase peptides
T7 construct: It is the unmutated control peptide of the mutagenesis set
T7 peptide: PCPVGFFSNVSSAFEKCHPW
Description: The binding of antibody to each of the synthesized peptides was tested in a PEPSCAN-based ELISA. The peptide arrays were incubated with primary antibody solution (overnight at 4° C.). After washing, the peptide arrays were incubated with a 1/1000 dilution of an antibody peroxidase conjugate (SBA, cat.nr.2010-05) for one hour at 25° C. After washing, the peroxidase substrate 2,2′-azino-di-3-ethylbenzthiazoline sulfonate (ABTS) and 2 microliters/milliliter of 3 percent H₂O₂ were added. After one hour, the color development was measured. The color development was quantified with a charge coupled device (CCD)—camera and an image processing system.

[7] = target: T1, human CD40 on cells (native CD40 on …); assay: FACS on Ramos cells, 30 min at 4 C, Alexa 488 goat anti-human IgG
Description: (§2) In order to assess the target mediated-internalization of APX005 for evaluating its impact on ADCC activity, Ramos cells were incubated with APX005 for 4 h at 37° C., a temperature permissive for internalization, or at 4° C. for 30 minutes, a temperature at which internalization is minimized. Cells were washed with staining buffer, followed by incubation with Alexa 488 labeled goat anti-human IgG for an additional 30 minutes at 4° C. FACS analysis was performed to examine the level of APX005 on the cell surface.

CD40-Fc protein = target: T8, CD40-Fc protein (Homo sapiens (Human), UniProt P25942 21-193); assay: ELISA, plates coated with CD40-Fc protein, OD405nm
T8 construct: not shown: Fc
T8 sequence (P25942 21-193 limits assumed): as the sequence (P25942 21-193 limits assumed) above
Source text: In order to assess the ability of the APX005 […] mutant to bind to CD40, APX005 S267E heavy chain and light chain plasmids were purified from transformed bacteria and transfected into 293-6E cell. Four days after transfection, antibody-containing culture supernatants were collected and tested for binding to CD40 using ELISA (ELISA plates coated with CD40-Fc protein).

[8] = target: T1, human CD40 on cells (native CD40 on …); assay: FACS on Ramos cells, 4 h at 37 C, Alexa 488 goat anti-human IgG
Description: as §2

[9] = target: T9, fusion protein of rabbit Fc and RANK (UniProt Q9Y6Q6 30-212, limits assumed); assay: direct ELISA, 1 ug/ml rabbit Fc-RANK fusion coated, goat anti-human IgG-HRP
T9 construct: Neither the species nor the order of the parts is stated; not shown: rabbit Fc
T9 sequence (looked up): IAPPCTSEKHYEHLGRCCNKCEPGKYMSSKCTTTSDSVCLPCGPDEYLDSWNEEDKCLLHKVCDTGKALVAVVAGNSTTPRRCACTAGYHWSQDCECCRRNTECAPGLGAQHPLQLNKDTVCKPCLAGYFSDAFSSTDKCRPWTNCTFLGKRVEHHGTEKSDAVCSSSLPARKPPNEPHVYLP
Description: as §1

T1 sequence (P25942 21-193): as the sequence (P25942 21-193 limits assumed) above

- fold higher affinity than CP870893 [1]: 6 fold
- EC50 (ng/ml), CD40 agonist activity: up-regulation of CD86 on human B cells [2]: 24.4 ng/mL
- binding result [3]: no binding
- binding result [4]: no binding
- binding result [5]: no binding
- binding result (mouse CD40): no binding
- Kd (human CD40): 0.96 nM
- binding result [6]: binds
- EC50 (read off the curve) [7]: ~0.05 µg/mL
- EC50 (CD40-Fc protein): 0.0563 µg/mL
- EC50 (read off the curve) [8]: ~0.05 µg/mL
- binding result [9]: no binding
B1: APX005, humanized version of the R-8 rabbit anti-CD40 antibody (antibody, IgG1, V domains shown)
VH: QVQLVESGGGVVQPGRSLRLSCAASGFSFSSTYVCWVRQAPGKGLEWIACIYTGDGTNYSASWAKGRFTISKDSSKNTVYLQMNSLRAEDTAVYFCARPDITYGFAINFWGPGTLVTVSS
VL: DIQMTQSPSSLSASVGDRVTIKCQASQSISSRLAWYQQKPGKPPKLLIYRASTLASGVPSRFSGSGSGTDFTLTISSLQPEDVATYYCQCTGYGISWPIGGGTKVEIK
notes: also called humanized R-8; APX005 wild type
